In patent US20260273029A1, “DRY EYE TREATMENT” (Inoculus Ventures, LLC, priority 2022, published 2026):

B1: α-Amylase from human saliva: α-amylase from human saliva (Sigma, catalog #A1031) (protein, UniProt P0DUB6 16-511, looked up)
Alpha-amylase 1A: QYSSNTQQGRTSIVHLFEWRWVDIALECERYLAPKGFGGVQVSPPNENVAIHNPFRPWWERYQPVSYKLCTRSGNEDEFRNMVTRCNNVGVRIYVDAVINHMCGNAVSAGTSSTCGSYFNPGSRDFPAVPYSGWDFNDGKCKTGSGDIENYNDATQVRDCRLSGLLDLALGKDYVRSKIAEYMNHLIDIGVAGFRIDASKHMWPGDIKAILDKLHNLNSNWFPEGSKPFIYQEVIDLGGEPIKSSDYFGNGRVTEFKYGAKLGTVIRKWNGEKMSYLKNWGEGWGFMPSDRALVFVDNHDNQRGHGAGGASILTFWDARLYKMAVGFMLAHPYGFTRVMSSYRWPRYFENGKDVNDWVGPPNDNGVTKEVTINPDTTCGNDWVCEHRWRQIRNMVNFRNVVDGQPFTNWYDNGSNQVAFGRGNRGFIVFNNDDWTFSLTLQTGLPAGTYCDVISGDKINGNCTGIKIYVSDDGKAHFSISNSAEDPFIAIHAESKL
B2: β-Amylase from sweet potato: β-Amylase from sweet potato, Sigma Aldrich research grade (protein, UniProt P10537 2-499, looked up)
Beta-amylase: APIPGVMPIGNYVSLYVMLPLGVVNADNVFPDKEKVEDELKQVKAGGCDGVMVDVWWGIIEAKGPKQYDWSAYRELFQLVKKCGLKIQAIMSFHQCGGNVGDAVFIPIPQWILQIGDKNPDIFYTNRAGNRNQEYLSLGVDNQRLFQGRTALEMYRDFMESFRDNMADFLKAGDIVDIEVGCGAAGELRYPSYPETQGWVFPGIGEFQCYDKYMVADWKEAVKQAGNADWEMPGKGAGTYNDTPDKTEFFRPNGTYKTDMGKFFLTWYSNKLIIHGDQVLEEANKVFVGLRVNIAAKVSGIHWWYNHVSHAAELTAGFYNVAGRDGYRPIARMLARHHATLNFTCLEMRDSEQPAEAKSAPQELVQQVLSSGWKEYIDVAGENALPRYDATAYNQMLLNVRPNGVNLNGPPKLKMSGLTYLRLSDDLLQTDNFELFKKFVKKMHADLDPSPNAISPAVLERSNSAITIDELMEATKGSRPFPWYDVTDMPVDGSNPFD
B3: α-Amylase from Bacillus subtilis: α-amylase from Bacillus subtilis (Sigma, catalog #10070) (protein, UniProt P00691 42-659, looked up)
Alpha-amylase: LTAPSIKSGTILHAWNWSFNTLKHNMKDIHDAGYTAIQTSPINQVKEGNQGDKSMSNWYWLYQPTSYQIGNRYLGTEQEFKEMCAAAEEYGIKVIVDAVINHTTSDYAAISNEVKSIPNWTHGNTQIKNWSDRWDVTQNSLLGLYDWNTQNTQVQSYLKRFLDRALNDGADGFRFDAAKHIELPDDGSYGSQFWPNITNTSAEFQYGEILQDSASRDAAYANYMDVTASNYGHSIRSALKNRNLGVSNISHYASDVSADKLVTWVESHDTYANDDEESTWMSDDDIRLGWAVIASRSGSTPLFFSRPEGGGNGVRFPGKSQIGDRGSALFEDQAITAVNRFHNVMAGQPEELSNPNGNNQIFMNQRGSHGVVLANAGSSSVSINTATKLPDGRYDNKAGAGSFQVNDGKLTGTINARSVAVLYPDDIAKAPHVFLENYKTGVTHSFNDQLTITLRADANTTKAVYQINNGPETAFKDGDQFTIGKGDPFGKTYTIMLKGTNSDGVTRTEKYSFVKRDPASAKTIGYQNPNHWSQVNAYIYKHDGSRVIELTGSWPGKPMTKNADGIYTLTLPADTDTTNAKVIFNNGSAQVPGQNQPGFDYVLNGLYNDSGLSGSLPH

How the values were obtained:
[1] = system: S. Aureus biofilms; experiment: Preliminary assessment of amylases on biofilms: prohibition of biofilm growth; format: cell-based; settings: Table 1, preliminary assessment of activity on Biofilms
Excerpt: (§1) Non-limiting examples of amylases contemplated by the disclosure and their preliminary assessment of their activity on Biofilms is listed on Table 1: […]

[2] = system: S. Aureus biofilms; experiment: Preliminary assessment of amylases on biofilms: reduction of existing biofilm; format: cell-based; settings: for Reduces Biofilm: Table 1, preliminary assessment of activity on Biofilms
Excerpt: as §1

[3] = system: S. Aureus biofilms; settings: existing data; cited from earlier work

| Molecule | Prohibits Biofilm Growth [1] | Reduces Biofilm [2] | in-vitro effectiveness at the inhibition and reduction of S. Aureus biofilms [3] | Reduces Biofilm, time ([2]; Table 1, reduces biofilm only after this time) |
| --- | --- | --- | --- | --- |
| B1 | Yes | No | certain in-vitro effectiveness | – |
| B2 | Partially | No | certain in-vitro effectiveness | – |
| B3 | Yes | – | certain in-vitro effectiveness | ≥ 3 h |
